In patent US20250197923 one finds activity data, which are given here for one substance.

For data set [1], the system named is Bst 2.0. Conditions: RT-LAMP time at 10000 copies RNA; 8 mM MgSO4, 50 mM KCl, pH 8.8; none at 100 copies.
Data set [2] deals with BD009-SDpol-1 (synthetic construct). Conditions: RT-LAMP time at 10000 copies RNA; 7 mM MgSO4, 50 mM KCl, pH 8.8; 18.6 min at 10 copies.

SARS-CoV-2 gene N LAMP target: the results for the activity in data set [1] and in data set [2] were 30 min and 8.7 min, respectively.
